According to PMC8914840:

Molecular target: human alpha thrombin (human, UniProt P00734;P00734 328-363;364-622)
Assay: electrochemical aptamer sensor (square-wave voltammetry); 1-500 nM thrombin; 100 Hz optimal; concentration-dependent peak current decrease; LOD 14.7 nM (not a Kd); Electrodes soaked in PBS before measurement (137 mM NaCl, 2.7 mM KCl, 10 mM Na2HPO4, 1.8 mM KH2PO4, pH 7.4); thrombin assay buffer and temperature not given in

B1: PES-modified TBA (arPES-TBA) (structured_DNA)
DNA: TAAGTTCATCTCCCCGGTTGGTGTGGTTGGT
modifications: 5' SH-(CH2)6; 3' amine conjugated to arPES
- binding result: binds
